# From the supplement of paper PMC7877785
# ± gives the uncertainty stated by the source.
# Assay: self-splicing fitness, log relative to wild type (ln ratio); higher = more splicing; Tetrahymena group I intron in knt gene, E. coli kanamycin selection, DiMSum; sequences stand for … in CUCUCU…GGAGGGAAAAGUUAUCAGGCAUGCACCUGGUAGCUAGUCUUUAAACCAAUAGAUUGCAUCGGUUUAAAAGGCAAGACCGUCAAAUUGCGGGAAAGGGGUCAACAGCCGUUCAGUACCAAGUCUCAGGGGAAACUUUGAGAUGGCCUUGCAAAGGGUAUGGUAAUAAGCUGACGGACAUGGUCCUAACCACGCAGCCAAGUCCUAAGUCAACAGAUCUUCUGUUGAUAUGGAUGCAGUUCACAGACUAAAUGUCGGUCGGGGAAGAUGUAUUCUUCUCAUAAGAUAUAGUCGGACCUCUCCUUAAUGGGAGCUAGCGGAUGAAGUGAUGCAACACUGGAGCCGCUGGGAACUAAUUUGUAUGCGAAAGUAUAUUGAUUAGUUUUGGAGUACUCGUGGUCG
# Method in brief: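 DiMSum derived fitness as the error-weighted combination of fold changes across replicates, kanamycin versus no kanamycin, normalised to wild type. E. coli BL21(DE3) held the library, which randomised all eight P1ex-region intron nucleotides within the knt kanamycin-resistance gene on pET-22b(+). Six replicate transformations grew overnight at 37°C or 30°C on LB agar with or without 25 μg/mL kanamycin, also containing 100 μg/mL carbenicillin, 50 μM IPTG and 0.2% rhamnose, and pooled colonies were amplicon-sequenced on an Illumina HiSeq 2500.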
Sequence,self-splicing fitness (ln) (30 °C),self-splicing fitness (ln) (37 °C)
UCAGAGCAAUAUUACGUUAA,-3.58 ± 0.35,-2.61 ± 0.34
UCAGAGCAAUAUUACGUUGU,-3.38 ± 0.2,-3.51 ± 0.35
UCAUAGCAAUAUUACGAAAG,,-1.84 ± 0.47
UCAUAGCAAUAUUACGAAAU,-2.86 ± 0.23,-2.58 ± 0.28
UCAUAGCAAUAUUACGACAG,-1.49 ± 0.13,-1.26 ± 0.15
UCAUAGCAAUAUUACGAGUU,-2.66 ± 0.34,-1.56 ± 0.36
UCAUAGCAAUAUUACGCCAU,-3.49 ± 0.36,-1.49 ± 0.33
UCAUAGCAAUAUUACGCGAG,-1.52 ± 0.15,-0.957 ± 0.15
UCAUAGCAAUAUUACGCUUA,,-1.21 ± 0.26
UCAUAGCAAUAUUACGGAUC,-3.73 ± 0.28,-2.38 ± 0.22
UCAUAGCAAUAUUACGGCGA,-0.178 ± 0.07,-0.102 ± 0.083
UCAUAGCAAUAUUACGGCGC,-2.63 ± 0.31,
UCAUAGCAAUAUUACGGGGA,-1.54 ± 0.1,-0.546 ± 0.12
UCAUAGCAAUAUUACGGUCU,-3.49 ± 0.16,-2.31 ± 0.14
UCAUAGCAAUAUUACGGUUA,-1.37 ± 0.14,-0.36 ± 0.11
UCAUAGCAAUAUUACGUAAU,-3.87 ± 0.48,-2.61 ± 0.28
UCAUAGCAAUAUUACGUGUU,-3.81 ± 0.14,-1.57 ± 0.1
UCAUAGCAAUAUUACGUUCU,-2.79 ± 0.27,-2.32 ± 0.21
UCCAAGCAAUAUUACGAAAC,-3.13 ± 0.22,-2.95 ± 0.35
UCCAAGCAAUAUUACGACAU,-3.54 ± 0.021,-2.31 ± 0.036
UCCAAGCAAUAUUACGAUUA,-0.942 ± 0.11,-0.817 ± 0.11
UCCAAGCAAUAUUACGCACC,-4.36 ± 0.32,-1.94 ± 0.21
UCCAAGCAAUAUUACGCAGA,-1.58 ± 0.12,-0.571 ± 0.088
UCCAAGCAAUAUUACGCAUU,-4.05 ± 0.21,-2.35 ± 0.23
UCCAAGCAAUAUUACGCCAC,,-1.13 ± 0.33

Sequence,self-splicing fitness (ln) (30 °C),self-splicing fitness (ln) (37 °C)
UCCAAGCAAUAUUACGCCAG,,-1.9 ± 0.28
UCCAAGCAAUAUUACGCGAU,-4.34 ± 0.21,-2.24 ± 0.17
UCCAAGCAAUAUUACGCGCC,-3.47 ± 0.27,-2.31 ± 0.32
UCCAAGCAAUAUUACGCUCG,-4.74 ± 0.45,-2.28 ± 0.49
UCCAAGCAAUAUUACGCUCU,-3.44 ± 0.28,-1.75 ± 0.18
UCCAAGCAAUAUUACGGAAU,-3.72 ± 0.3,-2.97 ± 0.33
UCCAAGCAAUAUUACGGCCG,-2.7 ± 0.2,-1.41 ± 0.16
UCCAAGCAAUAUUACGGCGA,0.214 ± 0.078,0.225 ± 0.086
UCCAAGCAAUAUUACGUAAG,-4.14 ± 0.3,-2.37 ± 0.21
UCCAAGCAAUAUUACGUACU,-3.94 ± 0.39,-2.54 ± 0.24
UCCAAGCAAUAUUACGUAGU,-1.27 ± 0.068,-0.483 ± 0.091
UCCAAGCAAUAUUACGUAUA,-2.19 ± 0.094,-1.29 ± 0.096
UCCAAGCAAUAUUACGUCUA,-2.26 ± 0.13,-0.9 ± 0.11
UCCAAGCAAUAUUACGUGCC,-3.87 ± 0.36,-2.28 ± 0.26
UCCAAGCAAUAUUACGUGCU,-3.49 ± 0.22,-2.76 ± 0.22
UCCAAGCAAUAUUACGUGUG,-2.08 ± 0.066,-1.75 ± 0.081
UCCCAGCAAUAUUACGAAUC,-2.49 ± 0.26,-1.93 ± 0.3
UCCCAGCAAUAUUACGAGUG,-3.66 ± 0.18,-1.79 ± 0.13
UCCCAGCAAUAUUACGAUAC,-2.17 ± 0.19,-2.45 ± 0.44
UCCCAGCAAUAUUACGAUCG,-3.52 ± 0.3,-2.79 ± 0.16
UCCCAGCAAUAUUACGCAGA,-0.882 ± 0.06,-0.0561 ± 0.073
UCCCAGCAAUAUUACGCCCU,-2.07 ± 0.15,-1.03 ± 0.21
UCCCAGCAAUAUUACGCCGU,-3.11 ± 0.22,-2.27 ± 0.21
UCCCAGCAAUAUUACGCCUG,-3.13 ± 0.26,-1.8 ± 0.23
UCCCAGCAAUAUUACGCGGG,-2.66 ± 0.12,-3.36 ± 0.18

Sequence,self-splicing fitness (ln) (30 °C),self-splicing fitness (ln) (37 °C)
UCCCAGCAAUAUUACGCUAG,-3.45 ± 0.18,-2.9 ± 0.34
UCCCAGCAAUAUUACGGAAG,-3.24 ± 0.12,-2.88 ± 0.23
UCCCAGCAAUAUUACGGCGG,-2.91 ± 0.16,-2.21 ± 0.18
UCCCAGCAAUAUUACGGUAU,-1.24 ± 0.059,-0.809 ± 0.08
UCCCAGCAAUAUUACGGUUC,-2.43 ± 0.11,-1.8 ± 0.14
UCCCAGCAAUAUUACGGUUG,-2.97 ± 0.17,-1.79 ± 0.15
UCCCAGCAAUAUUACGUACA,-1.92 ± 0.14,-0.819 ± 0.1
UCCCAGCAAUAUUACGUCUU,-2.99 ± 0.14,-2.76 ± 0.2
UCCCAGCAAUAUUACGUGCA,-0.634 ± 0.06,-0.597 ± 0.078
UCCGAGCAAUAUUACGAAUG,-2.81 ± 0.17,-2.94 ± 0.21
UCCGAGCAAUAUUACGACUC,-3.61 ± 0.21,-2.87 ± 0.34
UCCGAGCAAUAUUACGAGUC,,-2.16 ± 0.22
UCCGAGCAAUAUUACGAUAA,-2 ± 0.22,-2.41 ± 0.32
UCCGAGCAAUAUUACGAUAG,-3.72 ± 0.24,-2.22 ± 0.2
UCCGAGCAAUAUUACGAUCA,,-1.26 ± 0.25
UCCGAGCAAUAUUACGAUUU,-3.56 ± 0.25,-2.49 ± 0.44
UCCGAGCAAUAUUACGCCAA,,-2.4 ± 0.49
UCCGAGCAAUAUUACGCGUA,-1.14 ± 0.098,-0.936 ± 0.11
UCCGAGCAAUAUUACGCUAG,-3.12 ± 0.31,-2.75 ± 0.34
UCCGAGCAAUAUUACGCUUU,-2.64 ± 0.26,-3.01 ± 0.47
UCCGAGCAAUAUUACGGACG,-3.59 ± 0.24,-2.37 ± 0.25
UCCGAGCAAUAUUACGGAGG,-2.66 ± 0.16,-2.65 ± 0.24
UCCGAGCAAUAUUACGGCAU,-2.13 ± 0.13,-1.62 ± 0.097
UCCGAGCAAUAUUACGGGGU,-2.7 ± 0.2,-2.45 ± 0.28
UCCGAGCAAUAUUACGGUGU,-1.74 ± 0.1,-2.28 ± 0.17

Sequence,self-splicing fitness (ln) (30 °C),self-splicing fitness (ln) (37 °C)
UCCGAGCAAUAUUACGUACG,-3.62 ± 0.47,-2.34 ± 0.45
UCCGAGCAAUAUUACGUCAG,-3.62 ± 0.24,-1.07 ± 0.17
UCCGAGCAAUAUUACGUGGG,-2.8 ± 0.17,-2.56 ± 0.26
UCCGAGCAAUAUUACGUGGU,-2.83 ± 0.29,-2.29 ± 0.21
UCCGAGCAAUAUUACGUUCA,-2.55 ± 0.2,-3.16 ± 0.4
UCCUAGCAAUAUUACGAACG,-1.85 ± 0.2,-1.78 ± 0.3
UCCUAGCAAUAUUACGACGA,0.168 ± 0.12,0.868 ± 0.17
UCCUAGCAAUAUUACGAGGG,-2.97 ± 0.25,-2.7 ± 0.45
UCCUAGCAAUAUUACGAGUA,-1.12 ± 0.14,-0.911 ± 0.13
UCCUAGCAAUAUUACGCACU,-1.17 ± 0.12,-0.784 ± 0.12
UCCUAGCAAUAUUACGCCCA,-1.65 ± 0.34,-0.0863 ± 0.31
UCCUAGCAAUAUUACGCUAA,-2.98 ± 0.31,-3.02 ± 0.29
UCCUAGCAAUAUUACGGAAG,-3.41 ± 0.28,-1.23 ± 0.43
UCCUAGCAAUAUUACGGCGU,-0.736 ± 0.087,-0.557 ± 0.12
UCCUAGCAAUAUUACGGGUG,-0.384 ± 0.07,0.124 ± 0.087
UCCUAGCAAUAUUACGGUAG,-3.32 ± 0.32,-2.28 ± 0.29
UCCUAGCAAUAUUACGGUGA,-0.297 ± 0.053,0.225 ± 0.067
UCCUAGCAAUAUUACGGUGU,-1.71 ± 0.067,-0.222 ± 0.097
UCCUAGCAAUAUUACGUCCG,-3.98 ± 0.25,-3.81 ± 0.34
UCCUAGCAAUAUUACGUCGG,-2.31 ± 0.19,-0.128 ± 0.15
UCCUAGCAAUAUUACGUGCA,-2.86 ± 0.29,-1.72 ± 0.2
UCCUAGCAAUAUUACGUUCC,-2.61 ± 0.27,-1.72 ± 0.4
UCGAAGCAAUAUUACGAAGC,,-1.84 ± 0.47
